Data reported in the supplement of paper PMC7877785.
± gives the uncertainty stated by the source.

Experiment: self-splicing fitness, log relative to wild type (ln ratio); higher = more splicing; Tetrahymena group I intron in knt gene, E. coli kanamycin selection, DiMSum; sequences stand for … in CUCUCU…GGAGGGAAAAGUUAUCAGGCAUGCACCUGGUAGCUAGUCUUUAAACCAAUAGAUUGCAUCGGUUUAAAAGGCAAGACCGUCAAAUUGCGGGAAAGGGGUCAACAGCCGUUCAGUACCAAGUCUCAGGGGAAACUUUGAGAUGGCCUUGCAAAGGGUAUGGUAAUAAGCUGACGGACAUGGUCCUAACCACGCAGCCAAGUCCUAAGUCAACAGAUCUUCUGUUGAUAUGGAUGCAGUUCACAGACUAAAUGUCGGUCGGGGAAGAUGUAUUCUUCUCAUAAGAUAUAGUCGGACCUCUCCUUAAUGGGAGCUAGCGGAUGAAGUGAUGCAACACUGGAGCCGCUGGGAACUAAUUUGUAUGCGAAAGUAUAUUGAUUAGUUUUGGAGUACUCGUGGUCG
Summary of the method: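 DiMSum derived fitness as the error-weighted combination of fold changes across replicates, kanamycin versus no kanamycin, normalised to wild type. E. coli BL21(DE3) held the library, which randomised all eight P1ex-region intron nucleotides within the knt kanamycin-resistance gene on pET-22b(+). Six replicate transformations grew overnight at 37°C or 30°C on LB agar with or without 25 μg/mL kanamycin, also containing 100 μg/mL carbenicillin, 50 μM IPTG and 0.2% rhamnose, and pooled colonies were amplicon-sequenced on an Illumina HiSeq 2500.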

Row | Sequence | self-splicing fitness (ln) (30 °C) | self-splicing fitness (ln) (37 °C)
1 | GCACAGCAAUAUUACGGGAU | -1.01 ± 0.073 | -1.02 ± 0.087
2 | GCACAGCAAUAUUACGGGGG | -1.97 ± 0.088 | -0.472 ± 0.08
3 | GCACAGCAAUAUUACGUAAU | 0.164 ± 0.059 | -0.0143 ± 0.064
4 | GCACAGCAAUAUUACGUAGA | -0.215 ± 0.049 | 0.62 ± 0.066
5 | GCACAGCAAUAUUACGUCGC | -3.17 ± 0.13 | -1.67 ± 0.12
6 | GCACAGCAAUAUUACGUUAG | -2.6 ± 0.091 | -1.85 ± 0.11
7 | GCAGAGCAAUAUUACGAACC | -1.87 ± 0.32 | -1.24 ± 0.33
8 | GCAGAGCAAUAUUACGAAGA | -1.88 ± 0.36 | 
9 | GCAGAGCAAUAUUACGACGC | -3.56 ± 0.3 | -1.69 ± 0.18
10 | GCAGAGCAAUAUUACGAGAC | -3.42 ± 0.21 | -2.03 ± 0.12
11 | GCAGAGCAAUAUUACGAGGG | -3.47 ± 0.22 | -2.2 ± 0.24
12 | GCAGAGCAAUAUUACGAUAA | -3.38 ± 0.41 | -2.72 ± 0.44
13 | GCAGAGCAAUAUUACGCACC | -2.11 ± 0.45 | -1.17 ± 0.48
14 | GCAGAGCAAUAUUACGCAUG |  | -2.3 ± 0.39
15 | GCAGAGCAAUAUUACGCCGC | -2.91 ± 0.38 | 
16 | GCAGAGCAAUAUUACGCUGA | -2.11 ± 0.29 | -0.433 ± 0.19
17 | GCAGAGCAAUAUUACGGAUA | -1.48 ± 0.32 | -2.92 ± 0.4
18 | GCAGAGCAAUAUUACGGCCA |  | -2.11 ± 0.29
19 | GCAGAGCAAUAUUACGGCCU |  | -1.69 ± 0.28
20 | GCAGAGCAAUAUUACGGCGU | -0.715 ± 0.099 | -0.614 ± 0.11
21 | GCAGAGCAAUAUUACGGGAU | -3.53 ± 0.2 | -2.21 ± 0.19
22 | GCAGAGCAAUAUUACGGGCG | -3.2 ± 0.17 | -0.961 ± 0.14
23 | GCAGAGCAAUAUUACGGGGC | -3.05 ± 0.36 | 
24 | GCAGAGCAAUAUUACGGUAU | -3.23 ± 0.15 | 
25 | GCAGAGCAAUAUUACGUAAC | -2.84 ± 0.29 | 0.113 ± 0.22

Row | Sequence | self-splicing fitness (ln) (30 °C) | self-splicing fitness (ln) (37 °C)
26 | GCAGAGCAAUAUUACGUAGC | -3.31 ± 0.25 | -2.77 ± 0.22
27 | GCAGAGCAAUAUUACGUCAU |  | -1.4 ± 0.42
28 | GCAGAGCAAUAUUACGUGCA | -3.08 ± 0.29 | -2.21 ± 0.23
29 | GCAGAGCAAUAUUACGUUUA | -2.56 ± 0.3 | 
30 | GCAUAGCAAUAUUACGAAUA | -2.07 ± 0.17 | -1.38 ± 0.19
31 | GCAUAGCAAUAUUACGACGC | -0.867 ± 0.13 | -0.196 ± 0.13
32 | GCAUAGCAAUAUUACGACUG | -1.68 ± 0.12 | -0.65 ± 0.16
33 | GCAUAGCAAUAUUACGAGAA | -2.57 ± 0.46 | -2.67 ± 0.41
34 | GCAUAGCAAUAUUACGAGCG | -1.3 ± 0.077 | -1.05 ± 0.085
35 | GCAUAGCAAUAUUACGAGGA | -2.47 ± 0.32 | -2.21 ± 0.22
36 | GCAUAGCAAUAUUACGAUAU | -1.9 ± 0.084 | 0.148 ± 0.09
37 | GCAUAGCAAUAUUACGAUUG | -2.38 ± 0.14 | -1.67 ± 0.15
38 | GCAUAGCAAUAUUACGCAGA | -2.62 ± 0.31 | -2.06 ± 0.17
39 | GCAUAGCAAUAUUACGCCUU |  | -1.42 ± 0.21
40 | GCAUAGCAAUAUUACGCGAA | -2.13 ± 0.1 | -1.62 ± 0.12
41 | GCAUAGCAAUAUUACGCGAU | -3.36 ± 0.16 | -1.93 ± 0.14
42 | GCAUAGCAAUAUUACGGCCG | -2.37 ± 0.36 | -0.909 ± 0.39
43 | GCAUAGCAAUAUUACGGGAC | -2.49 ± 0.17 | -0.217 ± 0.14
44 | GCAUAGCAAUAUUACGGGCG | -1.84 ± 0.12 | -1.09 ± 0.11
45 | GCAUAGCAAUAUUACGGUGG | -2.55 ± 0.15 | -1.31 ± 0.13
46 | GCAUAGCAAUAUUACGUAUA | -3.23 ± 0.29 | -1.52 ± 0.24
47 | GCAUAGCAAUAUUACGUAUC | -3.24 ± 0.21 | -2.49 ± 0.22
48 | GCAUAGCAAUAUUACGUGAC | -2.49 ± 0.2 | -0.677 ± 0.14
49 | GCAUAGCAAUAUUACGUGUC | -3.89 ± 0.2 | -1.96 ± 0.2
50 | GCAUAGCAAUAUUACGUUCU | -2 ± 0.096 | -0.899 ± 0.1

Row | Sequence | self-splicing fitness (ln) (30 °C) | self-splicing fitness (ln) (37 °C)
51 | GCAUAGCAAUAUUACGUUUA | -2.47 ± 0.16 | -1.61 ± 0.12
52 | GCAUAGCAAUAUUACGUUUU | -3.61 ± 0.19 | -1.82 ± 0.19
53 | GCCAAGCAAUAUUACGAGCA | -1.82 ± 0.14 | -1.11 ± 0.15
54 | GCCAAGCAAUAUUACGCAAG | -2.89 ± 0.17 | -1.7 ± 0.2
55 | GCCAAGCAAUAUUACGCACG | -2.84 ± 0.23 | -1.08 ± 0.16
56 | GCCAAGCAAUAUUACGCAUA | -1.3 ± 0.09 | -0.709 ± 0.085
57 | GCCAAGCAAUAUUACGCCAG | -3.37 ± 0.21 | -2.88 ± 0.24
58 | GCCAAGCAAUAUUACGCCCU | -1.4 ± 0.13 | -0.504 ± 0.16
59 | GCCAAGCAAUAUUACGCCUC | -1.32 ± 0.1 | -0.316 ± 0.1
60 | GCCAAGCAAUAUUACGCGAU | -3.73 ± 0.14 | -2.64 ± 0.18
61 | GCCAAGCAAUAUUACGCGCA | -0.985 ± 0.12 | 0.097 ± 0.11
62 | GCCAAGCAAUAUUACGCGCU | -1.33 ± 0.063 | -0.352 ± 0.082
63 | GCCAAGCAAUAUUACGCGGG | -3.54 ± 0.23 | -2.37 ± 0.18
64 | GCCAAGCAAUAUUACGCUAA | -0.682 ± 0.099 | -1.37 ± 0.13
65 | GCCAAGCAAUAUUACGCUCU | -0.234 ± 0.1 | -0.0648 ± 0.12
66 | GCCAAGCAAUAUUACGUAAC | -1.35 ± 0.087 | -0.157 ± 0.11
67 | GCCAAGCAAUAUUACGUUUA | -2.97 ± 0.19 | -2.28 ± 0.18
68 | GCCAAGCAAUAUUACGUUUC | -2.86 ± 0.18 | -0.805 ± 0.12
69 | GCCCAGCAAUAUUACGACAC | -1.64 ± 0.081 | -0.294 ± 0.11
70 | GCCCAGCAAUAUUACGACAU | -1.515 ± 0.012 | -0.82 ± 0.032
71 | GCCCAGCAAUAUUACGCAUU | -0.902 ± 0.05 | -0.248 ± 0.063
72 | GCCCAGCAAUAUUACGCCAA | -3.11 ± 0.14 | -1.71 ± 0.1
73 | GCCCAGCAAUAUUACGCCAU | -2.56 ± 0.22 | -3.35 ± 0.37
74 | GCCCAGCAAUAUUACGCCUC | -0.831 ± 0.075 | 0.0191 ± 0.11
75 | GCCCAGCAAUAUUACGCGCA | -1.44 ± 0.11 | -0.0956 ± 0.1

Row | Sequence | self-splicing fitness (ln) (30 °C) | self-splicing fitness (ln) (37 °C)
76 | GCCCAGCAAUAUUACGCGCC | -4.19 ± 0.42 | -0.613 ± 0.19
77 | GCCCAGCAAUAUUACGCUGU | -0.516 ± 0.063 | -0.482 ± 0.092
78 | GCCCAGCAAUAUUACGCUUG | -3.45 ± 0.2 | -1.79 ± 0.17
79 | GCCCAGCAAUAUUACGGAAA | -0.768 ± 0.075 | -0.234 ± 0.084
80 | GCCCAGCAAUAUUACGGAUC | -0.448 ± 0.044 | -0.289 ± 0.056
81 | GCCCAGCAAUAUUACGGCGC | -3.02 ± 0.17 | -1.87 ± 0.16
82 | GCCCAGCAAUAUUACGGCUA | -1.1 ± 0.095 | -0.549 ± 0.1
83 | GCCCAGCAAUAUUACGGCUC | -0.866 ± 0.11 | -0.219 ± 0.14
84 | GCCCAGCAAUAUUACGGGCG | -2.53 ± 0.091 | -1.7 ± 0.099
85 | GCCCAGCAAUAUUACGGUUG | -2.99 ± 0.12 | -1.95 ± 0.11
86 | GCCCAGCAAUAUUACGUCCG | -3.33 ± 0.26 | -2.83 ± 0.21
87 | GCCCAGCAAUAUUACGUUAG | -3.81 ± 0.14 | -2.26 ± 0.16
88 | GCCGAGCAAUAUUACGACAU | -2.286 ± 0.016 | -1.27 ± 0.034
89 | GCCGAGCAAUAUUACGACGA | -1.34 ± 0.11 | -0.792 ± 0.098
90 | GCCGAGCAAUAUUACGACGC | -2.86 ± 0.23 | -1.08 ± 0.21
91 | GCCGAGCAAUAUUACGACGG | -3.78 ± 0.23 | -2.76 ± 0.28
92 | GCCGAGCAAUAUUACGACUC | -3.37 ± 0.48 | 0.198 ± 0.28
93 | GCCGAGCAAUAUUACGAGCG | 0.333 ± 0.15 | -0.618 ± 0.19
94 | GCCGAGCAAUAUUACGAGUA | -2.36 ± 0.11 | -1.43 ± 0.086
95 | GCCGAGCAAUAUUACGAGUU | -1.62 ± 0.12 | -0.709 ± 0.15
96 | GCCGAGCAAUAUUACGCACA | -1.22 ± 0.2 | -1.51 ± 0.19
97 | GCCGAGCAAUAUUACGCGAG | -3.29 ± 0.32 | -2.03 ± 0.32
98 | GCCGAGCAAUAUUACGCUAC | -3.91 ± 0.31 | -4.08 ± 0.47
